Source: the supplement of paper PMC7877785
± gives the uncertainty stated by the source.

Assay: self-splicing fitness, log relative to wild type (ln ratio); higher = more splicing; Tetrahymena group I intron in knt gene, E. coli kanamycin selection, DiMSum; sequences stand for … in CUCUCU…GGAGGGAAAAGUUAUCAGGCAUGCACCUGGUAGCUAGUCUUUAAACCAAUAGAUUGCAUCGGUUUAAAAGGCAAGACCGUCAAAUUGCGGGAAAGGGGUCAACAGCCGUUCAGUACCAAGUCUCAGGGGAAACUUUGAGAUGGCCUUGCAAAGGGUAUGGUAAUAAGCUGACGGACAUGGUCCUAACCACGCAGCCAAGUCCUAAGUCAACAGAUCUUCUGUUGAUAUGGAUGCAGUUCACAGACUAAAUGUCGGUCGGGGAAGAUGUAUUCUUCUCAUAAGAUAUAGUCGGACCUCUCCUUAAUGGGAGCUAGCGGAUGAAGUGAUGCAACACUGGAGCCGCUGGGAACUAAUUUGUAUGCGAAAGUAUAUUGAUUAGUUUUGGAGUACUCGUGGUCG
Summary of the method: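 Library with all eight P1ex-region intron nucleotides randomised, intron inside the knt kanamycin-resistance gene on pET-22b(+), in E. coli BL21(DE3). Cells grew overnight at 37°C or 30°C on LB agar with or without 25 μg/mL kanamycin (plus 100 μg/mL carbenicillin, 50 μM IPTG, 0.2% rhamnose), in six replicate transformations. Pooled colonies were amplicon-sequenced on Illumina HiSeq 2500. DiMSum fitness is the error-weighted combination of wild-type-normalised replicate fold changes, kanamycin versus none.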

## UACCAGCAAUAUUACGAAGA
30 °C
  self-splicing fitness (ln): -1.63 ± 0.097
37 °C
  self-splicing fitness (ln): -0.519 ± 0.11

## UACCAGCAAUAUUACGACCC
30 °C
  self-splicing fitness (ln): -2.84 ± 0.5
37 °C
  self-splicing fitness (ln): -1.02 ± 0.44

## UACCAGCAAUAUUACGACUC
30 °C
  self-splicing fitness (ln): -2.5 ± 0.18
37 °C
  self-splicing fitness (ln): -1.65 ± 0.2

## UACCAGCAAUAUUACGAUAC
37 °C
  self-splicing fitness (ln): -2.39 ± 0.19

## UACCAGCAAUAUUACGAUCC
30 °C
  self-splicing fitness (ln): -1.4 ± 0.15
37 °C
  self-splicing fitness (ln): -1.84 ± 0.26

## UACCAGCAAUAUUACGAUGC
30 °C
  self-splicing fitness (ln): -3.19 ± 0.16
37 °C
  self-splicing fitness (ln): -3.07 ± 0.25

## UACCAGCAAUAUUACGAUGU
30 °C
  self-splicing fitness (ln): -1.9 ± 0.091
37 °C
  self-splicing fitness (ln): -1.41 ± 0.11

## UACCAGCAAUAUUACGCAAU
30 °C
  self-splicing fitness (ln): -2.29 ± 0.091
37 °C
  self-splicing fitness (ln): -0.841 ± 0.076

## UACCAGCAAUAUUACGCAUA
30 °C
  self-splicing fitness (ln): -0.736 ± 0.072
37 °C
  self-splicing fitness (ln): 0.0861 ± 0.083

## UACCAGCAAUAUUACGCAUG
30 °C
  self-splicing fitness (ln): -1.22 ± 0.062
37 °C
  self-splicing fitness (ln): -1.09 ± 0.078

## UACCAGCAAUAUUACGCCGA
30 °C
  self-splicing fitness (ln): -1.45 ± 0.16
37 °C
  self-splicing fitness (ln): -0.513 ± 0.17

## UACCAGCAAUAUUACGCGAG
30 °C
  self-splicing fitness (ln): -0.774 ± 0.049
37 °C
  self-splicing fitness (ln): -0.168 ± 0.061

## UACCAGCAAUAUUACGCUCC
30 °C
  self-splicing fitness (ln): -1.12 ± 0.18
37 °C
  self-splicing fitness (ln): -0.501 ± 0.2

## UACCAGCAAUAUUACGGCCG
30 °C
  self-splicing fitness (ln): 0.00307 ± 0.099
37 °C
  self-splicing fitness (ln): -0.366 ± 0.12

## UACCAGCAAUAUUACGGGCU
30 °C
  self-splicing fitness (ln): -2.89 ± 0.14
37 °C
  self-splicing fitness (ln): -1.96 ± 0.19

## UACCAGCAAUAUUACGUAAU
30 °C
  self-splicing fitness (ln): -2.56 ± 0.097
37 °C
  self-splicing fitness (ln): -1.06 ± 0.096

## UACCAGCAAUAUUACGUGAA
30 °C
  self-splicing fitness (ln): -1.06 ± 0.053
37 °C
  self-splicing fitness (ln): -0.463 ± 0.076

## UACCAGCAAUAUUACGUUCU
30 °C
  self-splicing fitness (ln): -2.28 ± 0.096
37 °C
  self-splicing fitness (ln): -1.86 ± 0.11

## UACGAGCAAUAUUACGAAAA
30 °C
  self-splicing fitness (ln): -3.03 ± 0.44
37 °C
  self-splicing fitness (ln): -2.28 ± 0.39

## UACGAGCAAUAUUACGAAAU
37 °C
  self-splicing fitness (ln): -1.69 ± 0.25

## UACGAGCAAUAUUACGACAC
30 °C
  self-splicing fitness (ln): -3.07 ± 0.19
37 °C
  self-splicing fitness (ln): -3.28 ± 0.25

## UACGAGCAAUAUUACGACCA
30 °C
  self-splicing fitness (ln): -1.71 ± 0.42

## UACGAGCAAUAUUACGACGG
30 °C
  self-splicing fitness (ln): -2.13 ± 0.15
37 °C
  self-splicing fitness (ln): 0.000849 ± 0.18

## UACGAGCAAUAUUACGAGGC
30 °C
  self-splicing fitness (ln): -4.33 ± 0.39
37 °C
  self-splicing fitness (ln): -2.51 ± 0.25

## UACGAGCAAUAUUACGAUCA
30 °C
  self-splicing fitness (ln): -1.89 ± 0.15
37 °C
  self-splicing fitness (ln): -0.737 ± 0.13

## UACGAGCAAUAUUACGAUGU
30 °C
  self-splicing fitness (ln): -3.35 ± 0.32
37 °C
  self-splicing fitness (ln): -2.46 ± 0.34

## UACGAGCAAUAUUACGAUUU
30 °C
  self-splicing fitness (ln): -2.88 ± 0.17
37 °C
  self-splicing fitness (ln): -1.3 ± 0.16

## UACGAGCAAUAUUACGCAGU
30 °C
  self-splicing fitness (ln): -3.15 ± 0.26
37 °C
  self-splicing fitness (ln): -2.95 ± 0.33

## UACGAGCAAUAUUACGCCAC
37 °C
  self-splicing fitness (ln): -2.29 ± 0.42

## UACGAGCAAUAUUACGCGCG
30 °C
  self-splicing fitness (ln): -1.35 ± 0.13
37 °C
  self-splicing fitness (ln): -1.14 ± 0.18

## UACGAGCAAUAUUACGGAAC
30 °C
  self-splicing fitness (ln): -4.04 ± 0.42
37 °C
  self-splicing fitness (ln): -3.02 ± 0.35

## UACGAGCAAUAUUACGGAGC
30 °C
  self-splicing fitness (ln): -2.66 ± 0.3
37 °C
  self-splicing fitness (ln): -2.8 ± 0.32

## UACGAGCAAUAUUACGGCAU
30 °C
  self-splicing fitness (ln): -3.45 ± 0.23
37 °C
  self-splicing fitness (ln): -1.25 ± 0.15

## UACGAGCAAUAUUACGGCUC
37 °C
  self-splicing fitness (ln): 0.0878 ± 0.5

## UACGAGCAAUAUUACGGCUG
30 °C
  self-splicing fitness (ln): -0.628 ± 0.077
37 °C
  self-splicing fitness (ln): -0.0702 ± 0.1

## UACGAGCAAUAUUACGGUCC
30 °C
  self-splicing fitness (ln): -3.61 ± 0.43

## UACGAGCAAUAUUACGGUGA
30 °C
  self-splicing fitness (ln): -3.12 ± 0.18
37 °C
  self-splicing fitness (ln): -1.21 ± 0.13

## UACGAGCAAUAUUACGUACU
30 °C
  self-splicing fitness (ln): -3.32 ± 0.32
37 °C
  self-splicing fitness (ln): -1.76 ± 0.22

## UACGAGCAAUAUUACGUAUU
30 °C
  self-splicing fitness (ln): -3.45 ± 0.25
37 °C
  self-splicing fitness (ln): -2.47 ± 0.41

## UACGAGCAAUAUUACGUCAC
30 °C
  self-splicing fitness (ln): -2.59 ± 0.25
37 °C
  self-splicing fitness (ln): -2.09 ± 0.32

## UACGAGCAAUAUUACGUGAU
30 °C
  self-splicing fitness (ln): -4.17 ± 0.21
37 °C
  self-splicing fitness (ln): -2.45 ± 0.2

## UACGAGCAAUAUUACGUGUG
30 °C
  self-splicing fitness (ln): -2.43 ± 0.15
37 °C
  self-splicing fitness (ln): -1.82 ± 0.12

## UACGAGCAAUAUUACGUUCU
30 °C
  self-splicing fitness (ln): -2.38 ± 0.14
37 °C
  self-splicing fitness (ln): -2.35 ± 0.16

## UACGAGCAAUAUUACGUUGC
30 °C
  self-splicing fitness (ln): -3.28 ± 0.32
37 °C
  self-splicing fitness (ln): -2.18 ± 0.33
